Measurements from patent US20220088190A1 (published 2022).

T1: RAS G12R peptide on HLA-B*07:02 (human)
T1 peptide: GARGVGKSAL

T2: RAS wild type peptide on HLA-B*07:02 (human)
T2 peptide: GAGGVGKSAL

T3: RAS G12C peptide on HLA-B*07:02 (human)
T3 peptide: GACGVGKSAL

T4: RAS G12D peptide on HLA-B*07:02 (human)
T4 peptide: GADGVGKSAL

T5: RAS G12V peptide on HLA-B*07:02 (human)
T5 peptide: GAVGVGKSAL

T6: RAS wild type peptide on HLA-A*11:01 (human)
T6 peptide: VVVGAGGVGK

T7: RAS G12V peptide on HLA-A*03:01 (human)
T7 peptide: VVVGAVGVGK

T8: RAS G12V peptide on HLA-A*11:01 (human)
T8 peptide: VVVGAVGVGK

T9: RAS G12C peptide on HLA-A*11:01 (human)
T9 peptide: VVVGACGVGK

T10: RAS wild type peptide on HLA-A*03:01 (human)
T10 peptide: VVVGAGGVGK

T11: RAS G12C peptide on HLA-A*03:01 (human)
T11 peptide: VVVGACGVGK

T12: RAS G12D peptide on HLA-A*03:01 (human)
T12 peptide: VVVGADGVGK

T13: RAS G12R peptide on HLA-A*03:01 (human)
T13 peptide: VVVGARGVGK

T14: RAS G12V peptide on HLA-A*11:01 (human)
T14 peptide: VVGAVGVGK

T15: RAS wild type peptide on HLA-A*11:01 (human)
T15 peptide: VVGAGGVGK

T16: RAS G12C peptide on HLA-A*11:01 (human)
T16 peptide: VVGACGVGK

T17: RAS G12D peptide on HLA-A*11:01 (human)
T17 peptide: VVGADGVGK


Assays:
[1] = target: T1, RAS G12R peptide on HLA-B*07:02; assay: multimer staining
[2] = target: T2, RAS wild type peptide on HLA-B*07:02; assay: activation reporter or marker
[3] = target: T3, RAS G12C peptide on HLA-B*07:02; assay: activation reporter or marker
[4] = target: T4, RAS G12D peptide on HLA-B*07:02; assay: activation reporter or marker
[5] = target: T5, RAS G12V peptide on HLA-B*07:02; assay: activation reporter or marker
[6] = target: T6, RAS wild type peptide on HLA-A*11:01; assay: killing
[7] = target: T7, RAS G12V peptide on HLA-A*03:01; assay: cytokine release
[8] = target: T8, RAS G12V peptide on HLA-A*11:01; assay: multimer staining
[9] = target: T9, RAS G12C peptide on HLA-A*11:01; assay: activation reporter or marker
[10] = target: T10, RAS wild type peptide on HLA-A*03:01; assay: killing
[11] = target: T7, RAS G12V peptide on HLA-A*03:01; assay: multimer staining
[12] = target: T11, RAS G12C peptide on HLA-A*03:01; assay: activation reporter or marker
[13] = target: T12, RAS G12D peptide on HLA-A*03:01; assay: activation reporter or marker
[14] = target: T13, RAS G12R peptide on HLA-A*03:01; assay: activation reporter or marker
[15] = target: T14, RAS G12V peptide on HLA-A*11:01; assay: multimer staining
[16] = target: T15, RAS wild type peptide on HLA-A*11:01; assay: activation reporter or marker
[17] = target: T16, RAS G12C peptide on HLA-A*11:01; assay: activation reporter or marker
[18] = target: T17, RAS G12D peptide on HLA-A*11:01; assay: activation reporter or marker
[19] = target: T2, RAS wild type peptide on HLA-B*07:02; assay: killing

| binding result [1] | binding result [3] | binding result [4] | binding result [5] | binding result [7] | binding result [8] | binding result [9] | Binder | binding result [6] | further results |
| --- | --- | --- | --- | --- | --- | --- | --- | --- | --- |
| recognises | no recognition | no recognition | no recognition |  |  |  | TCR847 (TCR, V domains shown) Valpha: SQQGEEDPQALSIQEGENATMNCSYKTSINNLQWYRQNSGRGLVHLILIRSNEREKHSGRLRVTLDTSKKSSSLLITASRAADTASYFCATFPNFGNEKLTFGTGTRLTIIP Vbeta: DAGITQSPRHKVTETGTPVTLRCHQTENHRYMYWYRQDPGHGLRLIHYSYGVKDTDKGEVSDGYSVSRSKTEDFLLTLESATSSQTSVYFCAISESERYYEQYFGPGTRLTVT |  | binding result [2]: no recognition |
|  |  |  |  | no recognition | recognises | recognises | TCR831 (TCR, V domains shown) Valpha: ELKVEQNPLFLSMQEGKNYTIYCNYSTTSDRLYWYRQDPGKSLESLFVLLSNGAVKQEGRLMASLDTKARLSTLHITAAVHDLSATYFCAVDKDGGYQKVTFGTGTKLQVIP Vbeta: GAVVSQHPSWVICKSGTSVKIECRSLDFQATTMFWYRQFPKQSLMLMATSNEGSKATYEQGVEKDKFLINHASLTLSTLTVTSAHPEDSSFYICSASPRAGQLSSYNSPLHFGNGTRLTVT | no recognition |  |
|  |  |  |  | no recognition | recognises | recognises | TCR833 (TCR, V domains shown) Valpha: RKEVEQDPGPFNVPEGATVAFNCTYSNSASQSFFWYRQDCRKEPKLLMSVYSSGNEDGRFTAQLNRASQYISLLIRDSKLSDSATYLCAVNPPDTGFQKLVFGTGTRLLVSP Vbeta: DVKVTQSSRYLVKRTGEKVFLECVQDMDHENMFWYRQDPGLGLRLIYFSYDVKMKEKGDIPEGYSVSREKKERFSLILESASTNQTSMYLCASSLSFRQGLREQYFGPGTRLTVT | no recognition |  |
|  |  |  |  |  |  |  | TCR896 (TCR, V domains shown) Valpha: AQKVTQAQTEISVVEKEDVTLDCVYETRDTTYYLFWYKQPPSGELVFLIRRNSFDEQNEISGRYSWNFQKSTSSFNFTITASQVVDSAVYFCALSEAGTYKYIFGTGTRLKVLA Vbeta: DSGVTQTPKHLITATGQRVTLRCSPRSGDLSVYWYQQSLDQGLQFLIQYYNGEERAKGNILERFSAQQFPDLHSELNLSSLELGDSALYFCASSVAGGGQETQYFGPGTRLLVL |  | binding result [10]: no recognition; binding result [11]: recognises; binding result [12]: no recognition; binding result [13]: no recognition; binding result [14]: no recognition |
|  |  |  |  |  |  |  | TCR897 (TCR, V domains shown) Valpha: SQQGEEDPQALSIQEGENATMNCSYKTSINNLQWYRQNSGRGLVHLILIRSNEREKHSGRLRVTLDTSKKSSSLLITASRAADTASYFCATDPGGFKTIFGAGTRLFVKA Vbeta: EAGVAQSPRYKIIEKRQSVAFWCNPISGHATLYWYQQILGQGPKLLIQFQNNGVVDDSQLPKDRFSAERLKGVDSTLKIQPAKLEDSAVYLCASSLYGGSISYEQYFGPGTRLTVT |  | binding result [15]: recognises; binding result [16]: no recognition; binding result [17]: recognises; binding result [18]: recognises |
| recognises | no recognition | no recognition | no recognition |  |  |  | TCR864 (TCR, V domains shown) Valpha: LAKTTQPISMDSYEGQEVNITCSHNNIATNDYITWYQQFPSQGPRFIIQGYKTKVTNEVASLFIPADRKSSTLSLPRVSLSDTAVYYCLVGDFNSNSGYALNFGKGTSLLVTP Vbeta: GAGVSQSPSNKVTEKGKDVELRCDPISGHTALYWYRQRLGQGLEFLIYFQGNSAPDKSGLPSDRFSAERTGESVSTLTIQRTQQEDSAVYLCASKVYGYTFGSGTRLTVV |  | binding result [19]: no recognition |
